Experiments:
[1] = target: the molecule itself; test: cryo-EM structure
[2] = target: the molecule itself; test: SEC + native gel or EMSA
[3] = target: the molecule itself; test: cryo-EM 2D class averages
[4] = target: the molecule itself; test: native gel or EMSA

| Protein | stoichiometry N [2] | further results |
| --- | --- | --- |
| TqsA (transporter of quorum-sensing signal AI-2) from Escherichia coli (natural protein, E. coli K-12, UniProt P0AFS5 1-344, looked up) MAKPIITLNGLKIVIMLGMLVIILCGIRFAAEIIVPFILALFIAVILNPLVQHMVRWRVPRVLAVSILMTIIVMAMVLLLAYLGSALNELTRTLPQYRNSIMTPLQALEPLLQRVGIDVSVDQLAHYIDPNAAMTLLTNLLTQLSNAMSSIFLLLLTVLFMLLEVPQLPGKFQQMMARPVEGMAAIQRAIDSVSHYLVLKTAISIITGLVAWAMLAALDVRFAFVWGLLAFALNYIPNIGSVLAAIPPIAQVLVFNGFYEALLVLAGYLLINLVFGNILEPRIMGRGLGLSTLVVFLSLIFWGWLLGPVGMLLSVPLTIIVKIALEQTAGGQSIAVLLSDLNKE | – | stoichiometry N [1]: 5 |
| TqsA K200L (natural protein, E. coli K-12, UniProt P0AFS5 1-344, looked up) MAKPIITLNGLKIVIMLGMLVIILCGIRFAAEIIVPFILALFIAVILNPLVQHMVRWRVPRVLAVSILMTIIVMAMVLLLAYLGSALNELTRTLPQYRNSIMTPLQALEPLLQRVGIDVSVDQLAHYIDPNAAMTLLTNLLTQLSNAMSSIFLLLLTVLFMLLEVPQLPGKFQQMMARPVEGMAAIQRAIDSVSHYLVLLTAISIITGLVAWAMLAALDVRFAFVWGLLAFALNYIPNIGSVLAAIPPIAQVLVFNGFYEALLVLAGYLLINLVFGNILEPRIMGRGLGLSTLVVFLSLIFWGWLLGPVGMLLSVPLTIIVKIALEQTAGGQSIAVLLSDLNKE | 5 | – |
| TqsA R61L (natural protein, E. coli K-12, UniProt P0AFS5 1-344, looked up) MAKPIITLNGLKIVIMLGMLVIILCGIRFAAEIIVPFILALFIAVILNPLVQHMVRWRVPLVLAVSILMTIIVMAMVLLLAYLGSALNELTRTLPQYRNSIMTPLQALEPLLQRVGIDVSVDQLAHYIDPNAAMTLLTNLLTQLSNAMSSIFLLLLTVLFMLLEVPQLPGKFQQMMARPVEGMAAIQRAIDSVSHYLVLKTAISIITGLVAWAMLAALDVRFAFVWGLLAFALNYIPNIGSVLAAIPPIAQVLVFNGFYEALLVLAGYLLINLVFGNILEPRIMGRGLGLSTLVVFLSLIFWGWLLGPVGMLLSVPLTIIVKIALEQTAGGQSIAVLLSDLNKE | 5 | – |
| TqsA E280Q (natural protein, E. coli K-12, UniProt P0AFS5 1-344, looked up) MAKPIITLNGLKIVIMLGMLVIILCGIRFAAEIIVPFILALFIAVILNPLVQHMVRWRVPRVLAVSILMTIIVMAMVLLLAYLGSALNELTRTLPQYRNSIMTPLQALEPLLQRVGIDVSVDQLAHYIDPNAAMTLLTNLLTQLSNAMSSIFLLLLTVLFMLLEVPQLPGKFQQMMARPVEGMAAIQRAIDSVSHYLVLKTAISIITGLVAWAMLAALDVRFAFVWGLLAFALNYIPNIGSVLAAIPPIAQVLVFNGFYEALLVLAGYLLINLVFGNILQPRIMGRGLGLSTLVVFLSLIFWGWLLGPVGMLLSVPLTIIVKIALEQTAGGQSIAVLLSDLNKE | 5 | – |
| TqsA N234L (natural protein, E. coli K-12, UniProt P0AFS5 1-344, looked up) MAKPIITLNGLKIVIMLGMLVIILCGIRFAAEIIVPFILALFIAVILNPLVQHMVRWRVPRVLAVSILMTIIVMAMVLLLAYLGSALNELTRTLPQYRNSIMTPLQALEPLLQRVGIDVSVDQLAHYIDPNAAMTLLTNLLTQLSNAMSSIFLLLLTVLFMLLEVPQLPGKFQQMMARPVEGMAAIQRAIDSVSHYLVLKTAISIITGLVAWAMLAALDVRFAFVWGLLAFALLYIPNIGSVLAAIPPIAQVLVFNGFYEALLVLAGYLLINLVFGNILEPRIMGRGLGLSTLVVFLSLIFWGWLLGPVGMLLSVPLTIIVKIALEQTAGGQSIAVLLSDLNKE | 5 | – |
| TqsA P237A (natural protein, E. coli K-12, UniProt P0AFS5 1-344, looked up) MAKPIITLNGLKIVIMLGMLVIILCGIRFAAEIIVPFILALFIAVILNPLVQHMVRWRVPRVLAVSILMTIIVMAMVLLLAYLGSALNELTRTLPQYRNSIMTPLQALEPLLQRVGIDVSVDQLAHYIDPNAAMTLLTNLLTQLSNAMSSIFLLLLTVLFMLLEVPQLPGKFQQMMARPVEGMAAIQRAIDSVSHYLVLKTAISIITGLVAWAMLAALDVRFAFVWGLLAFALNYIANIGSVLAAIPPIAQVLVFNGFYEALLVLAGYLLINLVFGNILEPRIMGRGLGLSTLVVFLSLIFWGWLLGPVGMLLSVPLTIIVKIALEQTAGGQSIAVLLSDLNKE | 5 | – |
| TqsA N238L (natural protein, E. coli K-12, UniProt P0AFS5 1-344, looked up) MAKPIITLNGLKIVIMLGMLVIILCGIRFAAEIIVPFILALFIAVILNPLVQHMVRWRVPRVLAVSILMTIIVMAMVLLLAYLGSALNELTRTLPQYRNSIMTPLQALEPLLQRVGIDVSVDQLAHYIDPNAAMTLLTNLLTQLSNAMSSIFLLLLTVLFMLLEVPQLPGKFQQMMARPVEGMAAIQRAIDSVSHYLVLKTAISIITGLVAWAMLAALDVRFAFVWGLLAFALNYIPLIGSVLAAIPPIAQVLVFNGFYEALLVLAGYLLINLVFGNILEPRIMGRGLGLSTLVVFLSLIFWGWLLGPVGMLLSVPLTIIVKIALEQTAGGQSIAVLLSDLNKE | 5 | – |
| TqsA E164Q (natural protein, E. coli K-12, UniProt P0AFS5 1-344, looked up) MAKPIITLNGLKIVIMLGMLVIILCGIRFAAEIIVPFILALFIAVILNPLVQHMVRWRVPRVLAVSILMTIIVMAMVLLLAYLGSALNELTRTLPQYRNSIMTPLQALEPLLQRVGIDVSVDQLAHYIDPNAAMTLLTNLLTQLSNAMSSIFLLLLTVLFMLLQVPQLPGKFQQMMARPVEGMAAIQRAIDSVSHYLVLKTAISIITGLVAWAMLAALDVRFAFVWGLLAFALNYIPNIGSVLAAIPPIAQVLVFNGFYEALLVLAGYLLINLVFGNILEPRIMGRGLGLSTLVVFLSLIFWGWLLGPVGMLLSVPLTIIVKIALEQTAGGQSIAVLLSDLNKE | 5 | – |
| YdiK from Escherichia coli (natural protein, E. coli K-12, UniProt P0AFS7 1-370, looked up) MVNVRQPRDVAQILLSVLFLAIMIVACLWIVQPFILGFAWAGTVVIATWPVLLRLQKIMFGRRSLAVLVMTLLLVMVFIIPIALLVNSIVDGSGPLIKAISSGDMTLPDLAWLNTIPVIGAKLYAGWHNLLDMGGTAIMAKVRPYIGTTTTWFVGQAAHIGRFMVHCALMLLFSALLYWRGEQVAQGIRHFATRLAGVRGDAAVLLAAQAIRAVALGVVVTALVQAVLGGIGLAVSGVPYATLLTVLMILSCLVQLGPLPVLIPAIIWLYWTGDTTWGTVLLVWSGVVGTLDNVIRPMLIRMGADLPLILILSGVIGGLIAFGMIGLFIGPVLLAVSWRLFAAWVEEVPPPTDQPEEILEELGEIEKPNK | – | stoichiometry N [1]: 5 |
| YhhT from Escherichia coli (natural protein, E. coli K-12, UniProt P0AGM0 1-349, looked up) METPQPDKTGMHILLKLASLVVILAGIHAAADIIVQLLLALFFAIVLNPLVTWFIRRGVQRPVAITIVVVVMLIALTALVGVLAASFNEFISMLPKFNKELTRKLFKLQEMLPFLNLHMSPERMLQRMDSEKVVTFTTALMTGLSGAMASVLLLVMTVVFMLFEVRHVPYKMRFALNNPQIHIAGLHRALKGVSHYLALKTLLSLWTGVIVWLGLELMGVQFALMWAVLAFLLNYVPNIGAVISAVPPMIQVLLFNGVYECILVGALFLVVHMVIGNILEPRMMGHRLGMSTMVVFLSLLIWGWLLGPVGMLLSVPLTSVCKIWMETTKGGSKLAILLGPGRPKSRLPG | – | stoichiometry N [3]: 5 |
| PerM from Escherichia coli (natural protein, E. coli K-12, UniProt P0AFI9 1-353, looked up) MLEMLMQWYRRRFSDPEAIALLVILVAGFGIIFFFSGLLAPLLVAIVLAYLLEWPTVRLQSIGCSRRWATSIVLVVFVGILLLMAFVVLPIAWQQGIYLIRDMPGMLNKLSDFAATLPRRYPALMDAGIIDAMAENMRSRMLTMGDSVVKISLASLVGLLTIAVYLVLVPLMVFFLLKDKEQMLNAVRRVLPRNRGLAGQVWKEMNQQITNYIRGKVLEMIVVGIATWLGFLLFGLNYSLLLAVLVGFSVLIPYIGAFVVTIPVVGVALFQFGAGTEFWSCFAVYLIIQALDGNLLVPVLFSEAVNLHPLVIILSVVIFGGLWGFWGVFFAIPLATLIKAVIHAWPDGQIAQE | – | stoichiometry N [4]: 2 |
